Results from doi:10.1101/2021.11.02.466972.

Molecular target: T1, MBP-CahR (Pseudomonas putida KT2440) (UniProt Q88GQ3)
T1 sequence: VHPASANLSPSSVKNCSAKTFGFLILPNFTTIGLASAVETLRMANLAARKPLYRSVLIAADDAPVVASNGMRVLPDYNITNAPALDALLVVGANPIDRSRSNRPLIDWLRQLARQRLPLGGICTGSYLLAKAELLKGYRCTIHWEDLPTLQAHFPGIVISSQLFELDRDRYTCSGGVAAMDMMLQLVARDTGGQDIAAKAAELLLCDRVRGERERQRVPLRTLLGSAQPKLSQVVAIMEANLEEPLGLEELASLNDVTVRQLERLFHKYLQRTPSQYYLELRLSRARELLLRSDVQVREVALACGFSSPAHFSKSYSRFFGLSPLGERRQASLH
Test: EMSA
Settings: buffer, not given

“GTTTGTCCGAGACTTTGTGGCCGCCTGGCAGAAGGTCATGGAGCTGGACCGCTTTGATCTGAAATAGCGTTGCCTGGCGGGGGGGGCGCGCTCAGCGCCCCCTTGGCCAGTGGTTATCCCGCCAATTCCAGGTCGGATAGATACAAAAGTGTCCTCGTCGGTTCTGTTGCAATGCTTCTCAGGCGGCCGGCCTGAACAGCGTGCTCACAACGACAAGGAACCCCGACCATGCAAATGCCCAAGACC (double strand) [creA promoter probe]” was tested, and the binding was “binds”.
